Assay [1] addresses T1, rhodanese (UniProt P00586 2-297).
T1 sequence: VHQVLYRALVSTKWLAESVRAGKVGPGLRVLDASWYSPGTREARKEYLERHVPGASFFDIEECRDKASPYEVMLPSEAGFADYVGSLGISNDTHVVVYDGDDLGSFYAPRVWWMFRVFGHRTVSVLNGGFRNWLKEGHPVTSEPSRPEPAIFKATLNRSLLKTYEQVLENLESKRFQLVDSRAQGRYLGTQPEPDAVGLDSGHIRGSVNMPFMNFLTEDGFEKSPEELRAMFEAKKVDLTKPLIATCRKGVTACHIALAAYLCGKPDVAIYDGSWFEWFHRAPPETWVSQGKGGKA
Nature of the assay: cell-based or functional assay.

The target in another assay is cyclophilin A (UniProt P62937 1-165). The assay can be described thus: cell-based or functional assay.
Assay [2] deals with T1, rhodanese. The assay can be described thus: estimated from the molar ratio giving maximal refolding yield of rhodanese.
In assay [3] the target is T2, barnase (UniProt P00648 48-157). Nature of the assay: derived from amide proton exchange of barnase (NMR); reference value for intact GroEL from the literature.
T2 sequence (P00648 48-157): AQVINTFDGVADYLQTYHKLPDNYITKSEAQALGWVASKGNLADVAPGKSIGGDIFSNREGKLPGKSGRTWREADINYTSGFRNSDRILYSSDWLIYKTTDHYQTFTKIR
The target of assay [4] is T2, barnase. Nature of the assay: derived from the change from EX2 to EX1 amide proton exchange of barnase (NMR).

B1: sht-GroEL 191-345 (other)
chain: EGMQFDRGYLSPYFINKPETGAVELESPFILLADKKISNIREMLPVLEAVAKAGKPLLIIAEDVEGEALATLVVNTMRGIVKVAAVKAPGFGDRRKAMLQDIATLTGGTVISEEIGMELEKATLEDLGQAKRVVINKDTTTIIDGVGEEAAIQGR
For B1, in the assay with rhodanese [1], the rhodanese refolding activity was ~42.5%, the “rhodanese refolding activity above background refolding” value is ~37.5% and the “rhodanese refolding activity at about 25 mins” value was ~50%. Further, in the assay with cyclophilin A, the “refolding of inactivated cyclophilin A” value worked out at 100%.

B2: sht-GroEL 191-376 (other)
chain: EGMQFDRGYLSPYFINKPETGAVELESPFILLADKKISNIREMLPVLEAVAKAGKPLLIIAEDVEGEALATLVVNTMRGIVKVAAVKAPGFGDRRKAMLQDIATLTGGTVISEEIGMELEKATLEDLGQAKRVVINKDTTTIIDGVGEEAAIQGRVAQIRQQIEEATSDYDREKLQERVAKLAGGV
Regarding B2, the Kd in the assay with rhodanese [2] is > 100 nM. The “fold of the dissociation rate constant over that from intact GroEL” value in the assay with barnase [3] was < 5 fold. The “rhodanese refolding activity after 25 mins” value with rhodanese [1] was ~40%. Also, the “refolding of inactivated cyclophilin A” value with cyclophilin A was 100%. Also, the koff with barnase [4] was ~2 s⁻¹.

In general, Kd refers to the free concentration of one partner at which half of the binding sites on the other are occupied at equilibrium, for simple one-to-one binding. By koff is commonly meant the first-order rate constant of dissociation. Low readings indicate a long-lived complex, high ones a short-lived complex.

The values above are taken from US20030078373A1 (published 2003).
